In the RNAGym collection of RNA variant scans (doi:10.7554/elife.80360):

B1: Hairpin Ribozyme (parent)
chain: GUCCUCUUUCACGUGCGCGUGAAAGAGAGAAGUGAACCAGAGAAACACACGUUGUGGUAUAUUACCUGGUA

Variants of: B1
Test: self-cleavage, relative activity (ratio to wild type); higher = more cleavage; co-transcriptional

Row | Variant | self-cleavage
1 | GUCCUCUUUCACGUGCGCGCGAAAGAGAGAAGUGAACCAGAGAAACACACGUUGUGGUAUAUUACCAGGUA [U20C U67A] | 0.213
2 | GUCCUCUUUCACGAGCGCGUGAAAGAGAGAAGUGAACCAGAGAACCACACGUUGUGGUAUAUUACCUGGUA [U14A A45C] | 0.21
3 | GUCCUCUUUCACGUGCGCGUGAAAGAGAGAAGUGAACCAGUGAAACACACGUUGUGGUAUAUCACCUGGUA [A41U U63C] | 0.248
4 | GUCCUCUUUCACGUGCGCGUGAAAGAGAGAAGUGAACCAGAGUAACACACGUUGUGGUAUAUUACCUCGUA [A43U G68C] | 0.106
5 | GUCCUCUUUCACGUGCGCGUGAAAGAGAGAAGUGAACCAGAGAAACACACGUUGUGGUAUAUCAGCUGGUA [U63C C65G] | 0.117
6 | GUCCUCUUUCACGUGCGCGUGAAAGAGAGAAGUGAACCAGAAAAACACACGUUGUGGUAUAUUACCUCGUA [G42A G68C] | 0.15
7 | GUCCUCUUUCACGUGCGCGUGAAAGAGAGAGGUGAACCAGAGAAACACAAGUUGUGGUAUAUUACCUGGUA [A31G C50A] | 0.146
8 | GUCCUCUUUCACGUGCCCGUGACAGAGAGAAGUGAACCAGAGAAACACACGUUGUGGUAUAUUACCUGGUA [G17C A23C] | 0.603
9 | GUCCUCUUUCACUUGCGCGUGAAAGAGAGAAGUGAACCAGAGAAACACACGUUGUGGUAUAUUACCUGAUA [G13U G69A] | 0.312
10 | GUCCUCUUUCACGUGCGGGUGAAAGAGAGAAGUGAACCAGAGAAACACACGUUGUGGUAUAUUACCUGGGA [C18G U70G] | 0.537
11 | GUCCUCUUUCACGUGCGCGUGAAAGAGAGAUGUGAACCAGAGAAACACACGUUGUGGAAUAUUACCUGGUA [A31U U58A] | 0.026
12 | GUCCUCUUGCACGUGCGCGUGAAAGAGAGAAGUGAACCAGAGAAACGCACGUUGUGGUAUAUUACCUGGUA [U9G A47G] | 0.231
13 | GUCCUCUUUCACGGGCGCGUGAAAAAGAGAAGUGAACCAGAGAAACACACGUUGUGGUAUAUUACCUGGUA [U14G G25A] | 0.384
14 | GUCCUCUUUCACGUGCGCGUGAAAGCGAGAAGUGAACCAGAGAAACACACGUUGUGGUAUAUUACCUGGGA [A26C U70G] | 0.509
15 | GUCCCCUUUCACGUGCGCGUUAAAGAGAGAAGUGAACCAGAGAAACACACGUUGUGGUAUAUUACCUGGUA [U5C G21U] | 0.593
16 | GUCCUCUUUCACGUGCGCAUGAAAGAGAGAAGUGAACCAGAGAAACACACGAUGUGGUAUAUUACCUGGUA [G19A U52A] | 0.809
17 | GUCCUCUUUCACGUGCGCGUGAAAGAGAGAUGUGAACCAGAGAAACACACGUUGUCGUAUAUUACCUGGUA [A31U G56C] | 0.137
18 | GUCCUCUUUCACGUGCGCGUGAAAAAGAGAACUGAACCAGAGAAACACACGUUGUGGUAUAUUACCUGGUA [G25A G32C] | 0.0951
19 | GUCCUCUUUCACGUGCGCGUGAAAGAGAGAAGUGAACCAGAGAAACACACGUCCUGGUAUAUUACCUGGUA [U53C G54C] | 0.546

Row | Variant | self-cleavage
20 | GUCCUCUUUCACGUGCGCGUGAAAGAGAGACGUGAACCAAAGAAACACACGUUGUGGUAUAUUACCUGGUA [A31C G40A] | 0.131
21 | GUCCUCUUACACGUGCGCGUCAAAGAGAGAAGUGAACCAGAGAAACACACGUUGUGGUAUAUUACCUGGUA [U9A G21C] | 0.465
22 | GUCCUCUUUCCCGUGCGCGUGAAAGAGAGAAGUGAACCAGAGAAACACACGUUGUGGUAUAUUCCCUGGUA [A11C A64C] | 0.0846
23 | GUCCUCAUUCACGUGCGCGUGAAAGAGAGGAGUGAACCAGAGAAACACACGUUGUGGUAUAUUACCUGGUA [U7A A30G] | 0.305
24 | GUCCUCUUUCACGUGCGCGUGAAAGAGAGAAGUGUACCAGAGAAACACACGUUGUGGUAUAUUACCUCGUA [A35U G68C] | 0.206
25 | GUCCUCUUUCACGUGCGGGUGAAAGAGAGAAGUGAACCAGAGAAACACGCGUUGUGGUAUAUUACCUGGUA [C18G A49G] | 0.344
26 | GUCCUCUUUCACGUGCGCGUGAAAGAGGGAAGUGAACCAGAGAAACACACGUUGUGGUAGAUUACCUGGUA [A28G U60G] | 0.97
27 | GUCCUCCUUCACGUGCGCGUGAAAGAGAGAAGUGAACCAGAGCAACACACGUUGUGGUAUAUUACCUGGUA [U7C A43C] | 0.0702
28 | GUCCUCUUUCACGUGCGCGUGAAAGAGAGAAGUGAACCAGAGAAACACGCGUUGUGGUAUAUUACCUGGUU [A49G A71U] | 0.397
29 | GUCCUCUUUCACGUGCGCGUGAAAGAGAAAAGUGAACCAGAGAAACACACGUUGUGGUAUAUUACCUGGGA [G29A U70G] | 0.182
30 | GUCCUCUUUCACGUGCGCGUGAAAGAGAGAAGUGAAGCAGAGAAACACACGUAGUGGUAUAUUACCUGGUA [C37G U53A] | 0.245
31 | GUCCCCUGUCACGUGCGCGUGAAAGAGAGAAGUGAACCAGAGAAACACACGUUGUGGUAUAUUACCUGGUA [U5C U8G] | 0.429
32 | GUCCUCGUUCACGUGCGCGUGAAAGAGAGAAGUGAACCAGAGAAACACACGUUGUGGUAUAUUACCUGGUA [U7G] | 0.875
33 | GUCCUCUUUCACGUGCGCGUGAAACAGAGAAGUGAACCAGAGAACCACACGUUGUGGUAUAUUACCUGGUA [G25C A45C] | 0.123
34 | GUCCUCUUUCACGUGCGCGUGAAAGAGAGAAGUGAACCCGAGAAACACACGUUGUGGUAAAUUACCUGGUA [A39C U60A] | 0.359
35 | GUCCGCUUUCACGUGCGCGUGAAAGAGAGAAGUGAACCAGAGAAACACACGUUGUGGUAUAUAACCUGGUA [U5G U63A] | 0.127
36 | GUCCUCUUUCACGUGCGCGUGAAAGAGGGAAGUGAACCAGAAAAACACACGUUGUGGUAUAUUACCUGGUA [A28G G42A] | 0.21
37 | GUCCUCUUUCACGUGCGCGUGAAAGAGAGAAGUGAACCAGAGAUACACACGAUGUGGUAUAUUACCUGGUA [A44U U52A] | 0.237
38 | GUCCUCUUUCACGUGCGCCUGAAAGAGAGAAGUGAACCAGAGAAACACACGUUGUGGUAUAUUACCUUGUA [G19C G68U] | 0.213
